Like-named read-outs stand apart in the source and are kept apart here.
T1: human MICA-Fc (human, UniProt Q29983 24-307, limits assumed)
T1 construct: Bought from R&D Systems; also called recombinant human MICA-Fc; not shown: Fc part (detected with anti-human Fc)
T1 sequence (looked up): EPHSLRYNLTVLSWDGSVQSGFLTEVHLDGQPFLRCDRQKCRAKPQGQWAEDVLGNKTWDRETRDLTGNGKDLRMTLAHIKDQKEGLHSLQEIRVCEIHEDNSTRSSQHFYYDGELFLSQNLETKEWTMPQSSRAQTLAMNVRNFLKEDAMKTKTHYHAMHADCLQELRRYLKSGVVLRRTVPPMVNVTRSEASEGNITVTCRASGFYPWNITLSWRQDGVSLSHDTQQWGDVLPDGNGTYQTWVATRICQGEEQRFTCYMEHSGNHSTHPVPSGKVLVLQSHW

T2: human MICB-Fc (human, UniProt Q29980 23-298, limits assumed)
T2 construct: Bought from R&D Systems; also called recombinant human MICB-Fc; not shown: Fc part (detected with anti-human Fc)
T2 sequence (looked up): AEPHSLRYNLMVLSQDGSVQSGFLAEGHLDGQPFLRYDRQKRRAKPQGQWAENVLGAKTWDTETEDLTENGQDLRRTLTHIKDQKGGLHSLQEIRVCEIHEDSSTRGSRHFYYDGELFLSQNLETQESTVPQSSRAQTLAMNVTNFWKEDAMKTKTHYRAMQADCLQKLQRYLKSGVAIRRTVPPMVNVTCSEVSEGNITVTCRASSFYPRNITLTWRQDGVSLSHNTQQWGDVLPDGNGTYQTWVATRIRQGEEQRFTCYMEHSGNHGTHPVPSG

T3: human Fc-NKG2D (human, UniProt P26718 78-216)
T3 construct: range 78-216; Bought from R&D Systems: a recombinant fusion protein of human Fc and the extracellular domain (amino acids 78-216) of human NKG2D; also called human NKG2D (immobilized); not shown: human Fc
T3 sequence (looked up): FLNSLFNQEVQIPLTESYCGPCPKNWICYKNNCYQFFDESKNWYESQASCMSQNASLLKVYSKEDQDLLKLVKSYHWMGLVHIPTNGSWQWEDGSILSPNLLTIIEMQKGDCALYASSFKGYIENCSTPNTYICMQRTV

T4: mouse Fc-NKG2D (mouse, UniProt O54709 94-232, limits assumed)
T4 construct: Bought from R&D Systems; also called mouse NKG2D; not shown: Fc part
T4 sequence (looked up): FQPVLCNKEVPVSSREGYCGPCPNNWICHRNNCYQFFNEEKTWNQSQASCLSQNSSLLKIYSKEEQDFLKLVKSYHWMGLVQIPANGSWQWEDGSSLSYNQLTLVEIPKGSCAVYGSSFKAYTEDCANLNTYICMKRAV

T5: human CD22-Fc (human, UniProt P20273 20-687)
T5 construct: Bought from R&D Systems; not shown: Fc part
T5 sequence (looked up): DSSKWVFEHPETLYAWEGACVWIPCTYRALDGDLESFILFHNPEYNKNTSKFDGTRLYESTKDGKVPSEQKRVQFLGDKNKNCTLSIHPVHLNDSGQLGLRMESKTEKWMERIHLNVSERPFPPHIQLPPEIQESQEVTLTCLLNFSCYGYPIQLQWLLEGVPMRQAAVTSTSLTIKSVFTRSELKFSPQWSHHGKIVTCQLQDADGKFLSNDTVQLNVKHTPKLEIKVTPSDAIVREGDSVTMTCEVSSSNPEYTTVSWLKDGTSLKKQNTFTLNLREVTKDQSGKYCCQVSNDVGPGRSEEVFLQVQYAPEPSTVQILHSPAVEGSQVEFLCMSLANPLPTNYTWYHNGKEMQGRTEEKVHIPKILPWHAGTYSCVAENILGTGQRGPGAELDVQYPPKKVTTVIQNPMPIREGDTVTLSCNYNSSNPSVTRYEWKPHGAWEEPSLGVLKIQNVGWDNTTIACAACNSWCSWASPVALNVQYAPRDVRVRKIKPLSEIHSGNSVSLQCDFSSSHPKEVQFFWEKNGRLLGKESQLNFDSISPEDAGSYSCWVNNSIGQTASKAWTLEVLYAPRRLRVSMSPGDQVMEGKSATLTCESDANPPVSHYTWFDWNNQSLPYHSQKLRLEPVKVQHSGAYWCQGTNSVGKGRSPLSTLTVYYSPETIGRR

T6: human CD23 (human, UniProt P06734 150-321, limits assumed)
T6 construct: Bought
T6 sequence (looked up): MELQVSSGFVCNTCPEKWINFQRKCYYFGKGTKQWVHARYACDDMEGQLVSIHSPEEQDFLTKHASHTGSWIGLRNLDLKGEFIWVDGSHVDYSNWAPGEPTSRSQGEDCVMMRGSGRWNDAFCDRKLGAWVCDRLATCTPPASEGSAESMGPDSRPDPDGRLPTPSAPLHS

B1: human NKG2D, cell surface (receptor, UniProt P26718 1-216, looked up)
chain: MGWIRGRRSRHSWEMSEFHNYNLDLKKSDFSTRWQKQRCPVVKSKCRENASPFFFCCFIAVAMGIRFIIMVTIWSAVFLNSLFNQEVQIPLTESYCGPCPKNWICYKNNCYQFFDESKNWYESQASCMSQNASLLKVYSKEDQDLLKLVKSYHWMGLVHIPTNGSWQWEDGSILSPNLLTIIEMQKGDCALYASSFKGYIENCSTPNTYICMQRTV
notes: whole, on cells; also called cell surface human NKG2D
B2: KYK-2.0 Fab (Fab, V domains shown)
VH: QVQLVESGGGLVKPGGSLRLSCAASGFTFSSYGMHWVRQAPGKGLEWVAFIRYDGSNKYYADSVKGRFTISRDNSKNTKYLQMNSLRAEDTAVYYCAKDRGLGDGTYFDYWGQGTTVTVSS
VL: QSALTQPASVSGSPGQSITISCSGSSSNIGNNAVNWYQQLPGKAPKLLIYYDDLLPSGVSDRFSGSKSGTSAFLAISGLQSEDEADYYCAAWDDSLNGPVFGGGTKLTVL
notes: Human Fab (lambda) with human constant domains and a C-terminal (His)6 tag, expressed in E. coli from pC3C-His and purified by IMAC
B3: KYK-2.0 IgG1 (antibody, V domains shown)
VH: B2 VH
VL: B2 VL
notes: It was biotinylated for flow cytometry on PBMC; also called KYK-2.0 IgG1λ; PIGG-KYK-2.0
B4: human ULBP2-Fc (Fc fusion, UniProt Q9BZM5 26-217, looked up)
chain: GRADPHSLCYDITVIPKFRPGPRWCAVQGQVDEKTFLHYDCGNKTVTPVSPLGKKLNVTTAWKAQNPVLREVVDILTEQLRDIQLENYTPKEPLTLQARMSCEQKAEGHSSGSWQFSFDGQIFLLFDSEKRMWTTVHPGARKMKEKWENDKVVAMSFHYFSMGDCIGWLEDFLMGMDSTLEPSAGAPLAMSS
notes: Bought from R&D Systems; also called recombinant human ULBP2-Fc; not shown: Fc part (detected with anti-human Fc)
B5: KYK-1.0 Fab (Fab, V domains shown)
VH: EVQLVESGGGVVQPGGSLRLSCAASGFTFSSYGMHWVRQAPGKGLEWVAFIRYDGSNKYYADSVKGRFTISRDNSKNTKYLQMNSLRAEDTAVYYCAKDRFGYYLDYWGQGTLVTVSS
VL: QPVLTQPSSVSVAPGETARIPCGGDDIETKSVHWYQQKPGQAPVLVIYDDDDRPSGIPERFFGSNSGNTATLSISRVEAGDEADYYCQVWDDNNDEWVFGGGTQLTVL
notes: Human Fab with human constant domains (lambda light chain) and a C-terminal (His)6 tag, expressed in E. coli from pC3C-His and purified by IMAC
B6: KYK-1.0 IgG1 (antibody, V domains shown)
VH: B5 VH
VL: B5 VL
notes: Fully human IgG1 lambda; also called KYK-1.0 IgG1λ; PIGG-KYK-1.0

How the values were obtained:
human MICA-Fc = molecular target: T1, human MICA-Fc; experiment: whole-cell ELISA on HEK 293F/human NKG2D, 100 ng ligand-Fc, detected with biotinylated goat anti-human Fc and streptavidin-HRP, absorbance at 405 nm [panel MICA]
human MICB-Fc = molecular target: T2, human MICB-Fc; experiment: whole-cell ELISA on HEK 293F/human NKG2D, 100 ng ligand-Fc, detected with biotinylated goat anti-human Fc and streptavidin-HRP, absorbance at 405 nm [panel MICB]
human Fc-NKG2D [1] = molecular target: T3, human Fc-NKG2D; experiment: SPR (BIAcore 2000), human Fc-NKG2D immobilized on chip
human Fc-NKG2D [2] = molecular target: T3, human Fc-NKG2D; experiment: as above; remark: listed apart in the source
human Fc-NKG2D [3] = molecular target: T3, human Fc-NKG2D; experiment: SPR (BIAcore 2000), human Fc-NKG2D immobilized on chip; koff/kon
BSA = molecular target: T7, BSA (bovine, UniProt P02769); experiment: ELISA, protein coated at 100 ng/well, Fab detected with goat anti-human Fab-HRP, absorbance at 405 nm
T7 construct: coated on the ELISA plate; also called bovine serum albumin

mouse Fc-NKG2D = molecular target: T4, mouse Fc-NKG2D; experiment: as above
human CD22-Fc = molecular target: T5, human CD22-Fc; experiment: as above
human ULBP2-Fc = molecular target: B4; experiment: as above
human CD23 = molecular target: T6, human CD23; experiment: as above
human Fc-NKG2D [4] = molecular target: T3, human Fc-NKG2D
human Fc-NKG2D [5] = molecular target: T3, human Fc-NKG2D; remark: listed apart in the source
human Fc-NKG2D [6] = molecular target: T3, human Fc-NKG2D; experiment: SPR (BIAcore 2000), human Fc-NKG2D immobilized on chip; bivalent IgG
human Fc-NKG2D [7] = molecular target: T3, human Fc-NKG2D; experiment: SPR (BIAcore 2000), human Fc-NKG2D immobilized on chip; bivalent binding (virtual affinity, avidity)
[8] = molecular target: B1; experiment: whole-cell ELISA on HEK 293F/human NKG2D, 100 ng ligand-Fc, detected with biotinylated goat anti-human Fc and streptavidin-HRP, absorbance at 405 nm [panel ULBP2]

T7 sequence (P02769 25-607 limits assumed): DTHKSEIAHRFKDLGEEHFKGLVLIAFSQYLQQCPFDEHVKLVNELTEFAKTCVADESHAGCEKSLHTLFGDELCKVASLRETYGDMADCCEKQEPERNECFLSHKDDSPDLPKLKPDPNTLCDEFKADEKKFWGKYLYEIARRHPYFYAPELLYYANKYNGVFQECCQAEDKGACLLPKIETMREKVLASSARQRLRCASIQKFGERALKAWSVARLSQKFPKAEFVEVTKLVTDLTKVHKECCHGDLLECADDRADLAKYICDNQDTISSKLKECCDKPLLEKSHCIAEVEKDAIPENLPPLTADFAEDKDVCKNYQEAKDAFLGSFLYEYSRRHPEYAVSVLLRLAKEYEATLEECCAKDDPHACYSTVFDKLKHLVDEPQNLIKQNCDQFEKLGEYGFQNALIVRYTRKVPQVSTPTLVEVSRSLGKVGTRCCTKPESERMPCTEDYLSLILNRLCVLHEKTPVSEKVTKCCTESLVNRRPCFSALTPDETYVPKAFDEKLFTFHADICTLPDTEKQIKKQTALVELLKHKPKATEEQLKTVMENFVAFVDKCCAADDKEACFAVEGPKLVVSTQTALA

| Binder | koff (human Fc-NKG2D [2]) [s⁻¹] | kon (human Fc-NKG2D [2]) [M⁻¹ s⁻¹] | Kd (human Fc-NKG2D [3]) [nM] | binding result (BSA) | binding result (mouse Fc-NKG2D) | binding result (human CD22-Fc) | binding result (human ULBP2-Fc) | binding result (human CD23) | koff (human Fc-NKG2D [6]) [s⁻¹] | kon (human Fc-NKG2D [6]) [M⁻¹ s⁻¹] | Kd (human Fc-NKG2D [7]) [nM] | further results |
| --- | --- | --- | --- | --- | --- | --- | --- | --- | --- | --- | --- | --- |
| B1 | – | – | – | – | – | – | – | – | – | – | – | binding result (human MICA-Fc): binds; binding result (human MICB-Fc): binds |
| B2 | 0.0043 | 740000 | 5.8 | no binding (tested: not shown) | no binding (tested: not shown) | no binding (tested: not shown) | no binding (tested: not shown) | no binding (tested: not shown) | – | – | – | fold improvement in affinity (Kd) over KYK-1.0 Fab (human Fc-NKG2D [1]): ~4.5 fold; fold slower dissociation compared to KYK-1.0 Fab (human Fc-NKG2D [1]): ~8.5 fold; Kd (human Fc-NKG2D [4]): 1.9 to 3 nM; koff (human Fc-NKG2D [4]): 0.0012 s⁻¹; kon (human Fc-NKG2D [4]): 450000 M⁻¹ s⁻¹; Kd (human Fc-NKG2D [5]): 1.9 to 3 nM; koff (human Fc-NKG2D [5]): 0.0018 s⁻¹; kon (human Fc-NKG2D [5]): 890000 M⁻¹ s⁻¹ |
| B3 | – | – | – | – | – | – | – | – | 0.00012 | 320000 | 0.38 | – |
| B4 | – | – | – | – | – | – | – | – | – | – | – | binding result [8]: binds |
| B5 | 0.037 | 1.4e+06 | 27 | no binding (tested: not shown) | no binding (tested: not shown) | no binding (tested: not shown) | no binding (tested: not shown) | no binding (tested: not shown) | – | – | – | – |
| B6 | – | – | – | – | – | – | – | – | 0.00056 | 310000 | 1.8 | – |

From patent US20110150870A1 (UNITED STATES OF AMERICA AS REPRESENTED BY TH, published 2011)
